Among the data in the supplement of paper PMC10598134 are collision cross section values, retold here.

± gives the standard deviation.

The data set in a line: collision cross section of modified peptide (TIMS, N2, iRT-aligned); higher = larger / more extended gas-phase ion. The procedure, abridged:
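Collision cross section was derived from the Mason-Schamp equation. Each value averages 1–3 technical replicates of the most abundant feature per charge state, measured on a timsTOF Pro/HT in dda-PASEF mode (nitrogen, ~2.4 mbar) after a 120-min nanoflow C18 gradient at 60 °C. Synthetic peptide pools (~100 fmol/µL in 2% acetonitrile/0.1% formic acid, iRT standard spiked 1:40) were identified with MaxQuant, and 1/K0 was calibrated with three reference ions and aligned run-wise to the median iRT peptide deviation.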

Setting [1] is: charge state: 2, modification: Succinyl.
Where [2] appears, read: charge state: 2, modification: Nitro (Y).
[3] abbreviates: charge state: 2, modification: Formyl.
Where [4] appears, read: charge state: 2, modification: Phospho (Y).
Setting [5] is: charge state: 3, modification: Succinyl.
Setting [6] is: charge state: 2, modification: Acetyl (K).
Where [7] appears, read: charge state: 3, modification: Acetyl (K).
The mark [8] stands for this setting: charge state: 2, modification: Butyryl.
[9] abbreviates: charge state: 3, modification: Butyryl.
[10] abbreviates: charge state: 2, modification: Citrullination (R).
Where [11] appears, read: charge state: 3, modification: Citrullination (R).
The mark [12] stands for this setting: charge state: 2, modification: Dimethyl (K).
The mark [13] stands for this setting: charge state: 3, modification: Dimethyl (K).
The mark [14] stands for this setting: charge state: 2, modification: Glutarylation.
The mark [15] stands for this setting: charge state: 2, modification: HexNAc (ST).
[16] abbreviates: charge state: 2, modification: Trimethyl (K).
Setting [17] is: charge state: 3, modification: Trimethyl (K).
Where [18] appears, read: charge state: 2, modification: Malonyl.
Setting [19] is: charge state: 2, modification: Methyl (K).
Where [20] appears, read: charge state: 3, modification: Methyl (K).
Setting [21] is: charge state: 2, modification: Biotin.
The mark [22] stands for this setting: charge state: 2, modification: GlyGly (K).
Setting [23] is: charge state: 3, modification: GlyGly (K).

Under setting [1], “SGKFTQQDIDEAK [_SGK(Succinyl)FTQQDIDEAK_]” displayed a collision cross section of 414.39 ± 0.54 Å².

Take AYILNLVK [_AY(Nitro (Y))ILNLVK_]: the collision cross section under setting [2] was found to be 333.68 ± 0.72 Å².

Regarding “SDSGKPYYYNSQTK [_SDSGK(Formyl)PYYYNSQTK_]”, the collision cross section under setting [3] was found to be 417.77 ± 0.18 Å².

Consider LQIASDENYK [_LQIASDENY(Phospho (Y))K_], for which, under setting [4], the collision cross section was 374.64 ± 0.77 Å².

In turn, VNALKNLQVK [_VNALK(Formyl)NLQVK_] returned a collision cross section under setting [3] of 363.1 ± 0.39 Å².

Regarding VGTASVLQPVKK [_VGTASVLQPVK(Succinyl)K_], the collision cross section reads like this: under setting [1], 383.62 ± 0.87 Å²; under setting [5], 412.94 ± 4.4 Å².

With “ISSNFSSIIAEKLR [_ISSNFSSIIAEK(Acetyl (K))LR_]”, the collision cross section by setting is: under setting [6], 428.83 ± 3 Å²; under setting [7], 506.75 Å².

As for LEEVTGKLQVAR [_LEEVTGK(Butyryl)LQVAR_], the collision cross section under setting [8] is listed as 398.95 ± 0.23 Å² and the collision cross section under setting [9] is on record as 467.68 Å².

For “HLRGHGPQPPLR [_HLR(Citrullination (R))GHGPQPPLR_]”, the collision cross section reads like this: under setting [10], 393.67 ± 4.3 Å²; under setting [11], 482.78 ± 1.8 Å².

As for “VTLEVGKVIQQGR [_VTLEVGK(Dimethyl (K))VIQQGR_]”, the collision cross section turned out to be 422.85 ± 1.4 Å² under setting [12] and 464.75 ± 1.6 Å² under setting [13].

GDYDLNAVR [_GDY(Phospho (Y))DLNAVR_] displayed a collision cross section under setting [4] of 348.87 ± 0.066 Å².

As for LEQVEKELLR [_LEQVEK(Dimethyl (K))ELLR_], the collision cross section is, setting by setting: under setting [12], 388.36 ± 0.25 Å²; under setting [13], 444.88 ± 2.1 Å².

TTEETSKPK [_TTEETSK(Succinyl)PK_] registered a collision cross section under setting [1] of 347.17 ± 0.86 Å².

“AAQASDLEKIHLDEK [_AAQASDLEK(Acetyl (K))IHLDEK_]”: the collision cross section is 454.7 ± 2.5 Å² under setting [6] and 495.59 ± 1.3 Å² under setting [7].

HIGFVYHPTK [_HIGFVY(Nitro (Y))HPTK_]: the collision cross section by setting is: under setting [2], 375.77 ± 0.17 Å²; (charge state: 3, modification: Nitro (Y)) 448.27 ± 1.8 Å².

For “DAEAAEATAEGALKAEK [_DAEAAEATAEGALK(Acetyl (K))AEK_]”, the collision cross section is, setting by setting: under setting [6], 451.64 ± 19 Å²; under setting [7], 539.19 ± 1.8 Å².

Regarding “VRLQTTLR [_VR(Citrullination (R))LQTTLR_]”, under setting [10], the collision cross section was found to be 344.05 ± 1.2 Å².

Turning to “DKALPLEAEVAPVK [_DK(Gluratylation)ALPLEAEVAPVK_]”, the collision cross section under setting [14] is 424.54 ± 0.97 Å².

For the sequence “TLQKQSVVYGGK [_TLQK(Gluratylation)QSVVYGGK_]”, under setting [14], the collision cross section is recorded as 399.42 ± 0.6 Å².

In the case of AIQLNPSYIR [_AIQLNPSY(Nitro (Y))IR_], the collision cross section under setting [2] was 380.21 ± 0.17 Å².

“IVSGKDYNVTANSK [_IVSGK(Acetyl (K))DYNVTANSK_]” yielded a collision cross section under setting [6] of 408.96 ± 0.54 Å².

Under setting [8], SGFGKFER [_SGFGK(Butyryl)FER_] had a collision cross section of 337.09 ± 1.2 Å².

As for “VGIDTPDIDIHGPEGKLK [_VGIDTPDIDIHGPEGK(Succinyl)LK_]”, the collision cross section runs as follows: under setting [1], 494.78 Å²; under setting [5], 540.29 ± 1.1 Å².

Under setting [15], “GSAPPGPVPEGSIR [_GS(HexNAc (ST))APPGPVPEGSIR_]” came in with a collision cross section of 399.5 ± 0.63 Å².

In the case of “VGIDTPDIDIHGPEGKLK [_VGIDTPDIDIHGPEGK(Acetyl (K))LK_]”, the collision cross section by setting is: under setting [6], 490.05 Å²; under setting [7], 536.56 ± 1.2 Å².

Take “SGNLTEDDKHNNAK [_SGNLTEDDK(Trimethyl (K))HNNAK_]”: the collision cross section runs as follows: under setting [16], 419.32 ± 0.75 Å²; under setting [17], 469.66 ± 1.5 Å².

Turning to TLDEILQEKK [_TLDEILQEK(Malonyl)K_], the collision cross section under setting [18] is given as 380.87 ± 4.1 Å².

Under setting [8], GSLEKGSPEDK [_GSLEK(Butyryl)GSPEDK_] had a collision cross section of 371.66 ± 0.71 Å².

On to “SGNLTEDDKHNNAK [_SGNLTEDDK(Dimethyl (K))HNNAK_]”, for which, under setting [13], the collision cross section is listed as 479.84 ± 1.3 Å².

Turning to “VFSIISSEKELK [_VFSIISSEK(Methyl (K))ELK_]”, the collision cross section by setting is: under setting [19], 411.54 ± 0.9 Å²; under setting [20], 489.57 ± 1.9 Å².

Under “charge state: 3, modification: Hydroxyproline”, “GDTGLPGPQGIPGGVGSPGR [_GDTGLPGPQGIPGGVGSP(Hydroxyproline)GR_]” came in with a collision cross section of 499.06 ± 39 Å².

For “GGPGGELPRGPQAGLGPR [_GGPGGELPR(Methyl (R))GPQAGLGPR_]”, the collision cross section (charge state: 3, modification: Methyl (R)) came out at 497.33 ± 2 Å².

Regarding “PSVGSQSNQAGQGKR [_PSVGSQSNQAGQGK(Biotin)R_]”, the collision cross section under setting [21] was found to be 421.78 ± 0.67 Å² and the collision cross section (charge state: 3, modification: Biotin) was 480.61 ± 0.34 Å².

As to “LEEVTGKLQVAR [_LEEVTGK(Acetyl (K))LQVAR_]”, the collision cross section is 391.97 ± 0.61 Å² under setting [6] and 467.89 Å² under setting [7].

The sequence “ISSNFSSIIAEKLR [_ISSNFSSIIAEK(Trimethyl (K))LR_]” came in with a collision cross section under setting [17] of 499.26 ± 8.7 Å².

Turning to GDYDLNAVR [_GDY(Nitro (Y))DLNAVR_], under setting [2], the collision cross section worked out at 344.3 ± 0.72 Å².

SPDEAYAIAKK [_SPDEAYAIAK(Biotin)K_] showed a collision cross section under setting [21] of 394.29 ± 1.1 Å².

Under setting [17], “SLEEEGAAHSGKR [_SLEEEGAAHSGK(Trimethyl (K))R_]” registered a collision cross section of 465.19 ± 1.5 Å².

In the case of TTEETSKPK [_TTEETSK(GlyGly (K))PK_], the collision cross section under setting [22] is reported as 355.85 ± 0.24 Å² and the collision cross section under setting [23] was 431.05 ± 2.7 Å².

For “ASAISIKLGSSK [_ASAISIK(Gluratylation)LGSSK_]”, under setting [14], the collision cross section came to 376.68 ± 0.1 Å².

The sequence “SLYASSPGGVYATR [_SLYAS(HexNAc (ST))SPGGVYATR_]” registered a collision cross section under setting [15] of 421.13 ± 0.62 Å².

“LTSLNVKYNNDK [_LTSLNVK(Gluratylation)YNNDK_]” gave a collision cross section under setting [14] of 413.21 ± 1.1 Å².

As for TLDEILQEKK [_TLDEILQEK(Biotin)K_], under setting [21], the collision cross section is recorded as 403.31 Å².

In the case of “PSVGSQSNQAGQGKR [_PSVGSQSNQAGQGK(Propionyl)R_]”, the collision cross section is, setting by setting: (charge state: 2, modification: Propionyl) 412.6 ± 0.64 Å²; (charge state: 3, modification: Propionyl) 473.2 ± 1.4 Å².

As to “DESFLGKLGGTLAR [_DESFLGK(Butyryl)LGGTLAR_]”, the collision cross section worked out at 417.73 ± 0.53 Å² under setting [8] and 494.35 ± 3.3 Å² under setting [9].

“VPTTEKPTVTVNFR [_VPTTEK(Butyryl)PTVTVNFR_]”: the collision cross section under setting [8] was determined as 428.57 ± 0.24 Å² and the collision cross section under setting [9] was 508.36 ± 2.4 Å².

Regarding “TQAYQDQKPGTSGLR [_TQAYQDQK(Methyl (K))PGTSGLR_]”, the collision cross section is given as 422.44 Å² under setting [19] and 472.98 ± 2.7 Å² under setting [20].

For the sequence “AVPSSPAGSAARGR [_AVPSSPAGSAAR(Citrullination (R))GR_]”, the collision cross section runs as follows: under setting [10], 365.96 ± 0.94 Å²; under setting [11], 481.37 ± 0.56 Å².

As for “LEKTIDDLEEK [_LEK(Dimethyl (K))TIDDLEEK_]”, the collision cross section is, setting by setting: under setting [12], 401.15 ± 1.1 Å²; under setting [13], 461.19 ± 2.1 Å².

For the sequence “FLQEFYQDDELGKK [_FLQEFYQDDELGK(Butyryl)K_]”, the collision cross section under setting [8] is 451.46 ± 0.51 Å² and the collision cross section under setting [9] turned out to be 506.1 Å².

“ILDLKTGTVK [_ILDLK(Trimethyl (K))TGTVK_]”: under setting [16], the collision cross section is reported as 360.39 ± 1.1 Å².

Turning to “GETASKLQSEISR [_GETASK(Gluratylation)LQSEISR_]”, the collision cross section runs as follows: under setting [14], 403.5 ± 0.6 Å²; (charge state: 3, modification: Glutarylation) 470.57 Å².

With “SITHSTVGSKGEK [_SITHSTVGSK(Succinyl)GEK_]”, the collision cross section by setting is: under setting [1], 392.73 ± 1.4 Å²; under setting [5], 442.37 ± 2.9 Å².

“DLGKFQVATDALK [_DLGK(GlyGly (K))FQVATDALK_]”: the collision cross section under setting [22] is 422.76 ± 0.97 Å² and the collision cross section under setting [23] was 498.2 ± 1.1 Å².

Regarding “SPSDSGYSYETIGKTTK [_SPSDSGYSYETIGK(Malonyl)TTK_]”, the collision cross section runs as follows: under setting [18], 450.66 ± 0.58 Å²; (charge state: 3, modification: Malonyl) 526.41 Å².

For “GFALVGVGSEASSKK [_GFALVGVGSEASSK(Formyl)K_]”, the collision cross section is, setting by setting: under setting [3], 409.61 ± 2 Å²; (charge state: 3, modification: Formyl) 498.32 ± 1.8 Å².

For VYSLFLDESR [_VY(Nitro (Y))SLFLDESR_], the collision cross section under setting [2] turned out to be 377.85 ± 0.17 Å².

In turn, KFGVLSDNFK [_K(Malonyl)FGVLSDNFK_] registered a collision cross section under setting [18] of 373.81 ± 0.63 Å².

Turning to “PGGEGPQCEKTTDVK [_PGGEGPQCEK(hydroxyisobutyryl)TTDVK_]”, the collision cross section by setting is: (charge state: 2, modification: hydroxyisobutyryl) 425.58 ± 0.3 Å²; (charge state: 3, modification: hydroxyisobutyryl) 464.88 Å².

As for ASAISIKLGSSK [_ASAISIK(Formyl)LGSSK_], the collision cross section under setting [3] is 364.8 ± 0.89 Å².
